Measured values from CN111138531A (INST MILITARY MEDICINE ACADEMY MILITARY SCIENCES PLA, dated 2020).

Experiments:
[1] = molecular target: T1, SUDV GP (SUDV, UniProt Q7T9D9 33-650); test: ELISA, coated GP 1 μg/mL, 1:3 dilution series of 8F9
T1 sequence: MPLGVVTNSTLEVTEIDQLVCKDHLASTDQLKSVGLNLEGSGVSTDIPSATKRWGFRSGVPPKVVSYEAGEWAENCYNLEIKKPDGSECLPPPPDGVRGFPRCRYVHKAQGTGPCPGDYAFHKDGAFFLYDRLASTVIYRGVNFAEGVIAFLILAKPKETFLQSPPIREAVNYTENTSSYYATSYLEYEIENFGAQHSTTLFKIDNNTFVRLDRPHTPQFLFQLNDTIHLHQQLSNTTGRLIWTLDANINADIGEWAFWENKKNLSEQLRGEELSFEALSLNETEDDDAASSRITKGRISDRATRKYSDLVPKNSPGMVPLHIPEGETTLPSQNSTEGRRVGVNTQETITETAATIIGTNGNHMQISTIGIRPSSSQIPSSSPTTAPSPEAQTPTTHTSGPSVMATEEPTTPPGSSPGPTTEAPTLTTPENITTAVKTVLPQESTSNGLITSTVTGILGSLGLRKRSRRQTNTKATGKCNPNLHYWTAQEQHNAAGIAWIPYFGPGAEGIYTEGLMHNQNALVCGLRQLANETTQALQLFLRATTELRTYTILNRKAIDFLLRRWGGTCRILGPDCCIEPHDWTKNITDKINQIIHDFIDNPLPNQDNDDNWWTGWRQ

[2] = molecular target: T2, RESTV GP (RESTV, UniProt Q66799 34-651); test: as above
T2 sequence: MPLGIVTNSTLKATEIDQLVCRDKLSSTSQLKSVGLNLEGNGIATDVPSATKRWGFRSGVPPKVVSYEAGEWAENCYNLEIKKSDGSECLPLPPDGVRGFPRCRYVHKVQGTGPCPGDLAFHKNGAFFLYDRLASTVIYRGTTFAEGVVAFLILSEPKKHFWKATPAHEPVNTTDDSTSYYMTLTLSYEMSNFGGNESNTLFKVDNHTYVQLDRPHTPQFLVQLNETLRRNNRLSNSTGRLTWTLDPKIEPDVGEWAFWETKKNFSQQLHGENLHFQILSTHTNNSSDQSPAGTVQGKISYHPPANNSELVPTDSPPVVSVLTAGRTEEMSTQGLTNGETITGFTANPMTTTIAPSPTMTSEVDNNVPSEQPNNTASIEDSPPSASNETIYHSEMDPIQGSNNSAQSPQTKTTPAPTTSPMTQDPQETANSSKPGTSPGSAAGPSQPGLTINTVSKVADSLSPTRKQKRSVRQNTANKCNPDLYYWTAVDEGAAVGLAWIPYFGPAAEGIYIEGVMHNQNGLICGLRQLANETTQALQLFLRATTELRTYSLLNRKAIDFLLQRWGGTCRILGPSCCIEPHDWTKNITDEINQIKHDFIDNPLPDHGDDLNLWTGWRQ

[3] = molecular target: T3, EBOV GP (EBOV, UniProt Q05320 33-650); test: ELISA, coated GP 1 μg/mL, 1:3 dilution series of 8F9 from 10 μg/mL
T3 sequence: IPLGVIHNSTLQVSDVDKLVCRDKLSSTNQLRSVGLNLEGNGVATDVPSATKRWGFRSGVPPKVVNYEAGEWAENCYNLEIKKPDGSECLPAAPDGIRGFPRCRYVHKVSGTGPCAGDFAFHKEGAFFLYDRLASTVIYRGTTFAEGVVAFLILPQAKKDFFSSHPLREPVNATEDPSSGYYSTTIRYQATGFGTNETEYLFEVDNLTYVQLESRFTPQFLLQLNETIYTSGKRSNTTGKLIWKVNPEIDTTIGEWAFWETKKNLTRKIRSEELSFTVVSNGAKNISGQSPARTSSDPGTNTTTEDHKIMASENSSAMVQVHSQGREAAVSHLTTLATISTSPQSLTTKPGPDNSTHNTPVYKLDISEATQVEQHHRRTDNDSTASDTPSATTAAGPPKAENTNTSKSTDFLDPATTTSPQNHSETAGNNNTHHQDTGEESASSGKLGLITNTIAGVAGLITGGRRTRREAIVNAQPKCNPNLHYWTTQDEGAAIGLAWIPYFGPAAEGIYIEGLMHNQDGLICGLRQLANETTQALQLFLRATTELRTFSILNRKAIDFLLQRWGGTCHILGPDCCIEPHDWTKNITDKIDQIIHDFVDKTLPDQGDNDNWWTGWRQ

[4] = molecular target: GP1 (EBOV, UniProt Q05320 33-501); test: ELISA on coated truncated GP, method as example 2
[5] = molecular target: sGP (EBOV, UniProt Q05320 33-295); test: ELISA on coated truncated GP, method as example 2

B1: 单克隆抗体8F9 (antibody, V domains shown)
VH: EVQLLESGGGLVQPGGSLRLSCAASEFTFSNYAMNWVRQAPGKGLEWVSGISTRGSSTYYADSVKGRFTISRDNSKNTLYLQMNSLRVEDTAVYYCAKDRLSVFGVVLISSDYYGMDVWGQGTTVTVSS
VL: AIRMTQSPFSLSASVGDRVTITCRASRTISSYLNWYQKKPGKAPKLLIYAASSLQSGVPSRFSGSGSGTDFTLTISSLQPEDFATYYCQQSYSTPMTFGQGTRLEIKT
- binding result [1]: no binding (tested: 10μg/mL (highest concentration tested))
- binding result [2]: no binding (tested: 10μg/mL (highest concentration tested))
- EC50 [3]: 15 ng/mL
- EC50 [4]: 9.5 ng/mL
- EC50 [5]: 8.8 ng/mL
